The values below come from publication PMC7144912 (Nucleic Acids Research, 2020).

Read-outs that look alike come from different tables or passages of the source.

Series [1] deals with the molecule itself. As to the kind of experiment: crystal structure.
In series [2] the target is T1, DNMT3B catalytic domain (3B-CD);DNMT3L catalytic-like domain (3L-CD) (Homo sapiens;Homo sapiens, UniProt Q9UBC3;Q9UJW3 571-853;178-379, |). As to the kind of experiment: X-ray crystallography.
For series [3], the target named is T1, DNMT3B catalytic domain (3B-CD);DNMT3L …. As to the kind of experiment: X-ray crystallography. The source holds these as a separate data set.

T1 sequence (Q9UJW3 178-379, one chain of several): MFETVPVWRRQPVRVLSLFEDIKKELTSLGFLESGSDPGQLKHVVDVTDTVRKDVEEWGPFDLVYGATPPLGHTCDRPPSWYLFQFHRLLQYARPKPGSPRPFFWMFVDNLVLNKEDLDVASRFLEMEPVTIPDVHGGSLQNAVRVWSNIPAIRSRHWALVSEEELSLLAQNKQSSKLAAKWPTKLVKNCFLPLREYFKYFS

B1: catalytic domain of human DNMT3B (3B-CD, residues 571–853) (domain or fragment, UniProt Q9UBC3 571-853, looked up)
chain: RRRPIRVLSLFDGIATGYLVLKELGIKVGKYVASEVCEESIAVGTVKHEGNIKYVNDVRNITKKNIEEWGPFDLVIGGSPCNDLSNVNPARKGLYEGTGRLFFEFYHLLNYSRPKEGDDRPFFWMFENVVAMKVGDKRDISRFLECNPVMIDAIKVSAAHRARYFWGNLPGMNRPVIASKNDKLELQDCLEYNRIAKLKKVQTITTKSNSIKQGKNQLFPVVMNGKEDVLWCTELERIFGFPVHYTDVSNMGRGARQKLLGRSWSVPVIRHLFAPLKDYFACE
B1: the binding result in series [1] is “binds”.

B2: CpGpG crystallization duplex (dsDNA)
DNA 1: GAATTCGGAAAAATTTTTCCGAATT
DNA 2: GAATTCGGAAAAATTTTTCCGAATT
For the molecule B2, the binding result in series [2] is “binds”.

B3: CpGpT crystallization duplex (dsDNA)
DNA 1: GCATGCGTTCTAATTAGAACGCATG
DNA 2: GCATGCGTTCTAATTAGAACGCATG
Regarding B3, in series [3], the binding result is “binds”.
